Sequences and labels used below:
B1: KSHV viral interferon regulatory factor 1, wild type, Flag-tagged (vIRF1-WT-Flag) [modified: lysine propionylation at Lys406 and Lys442 and lysine acetylation, as found on vIRF1 immunoprecipitated from these cells; lysine … (parent)
chain 1: MDPGQRPNPFGAPGAIPKKPCLSQGSPGTSGSGAPCDEPSRSESPGEGPSGTGGSAAAGDITRQAVVAAITEWSRTRQLRISTGASEGKASIKDWIVCQVNSGKFPGVEWEDEERTRFRIPVTPLADPCFEWRRDGELGVVYIRERGNMPVDASFKGTRGRRRMLAALRRTRGLQEIGKGISQDGHHFLVFRVRKPEEEQCVECGVVAGAVHDFNNMARLLQEGFFSPGQCLPGEIVTPVPSCTTAEGQEAVIDWGRLFIRMYYNGEQVHELLTTSQSGCRISSALRRDPAVHYCAVGSPGQVWLPNVPNLACEIAKRELCDTLDACAKGILLTSSCNGIFCVCYHNGPVHFIGNTVPPDSGPLLLPQGKPTRIFNPNTFLVGLANSPLPAPSHVTCPLVKLWLGKPVAVGKLEPHAPSPRDFAARCSNFSDACVVLEIMPKPLWDAMQ
chain 2: MGTPKPRILPWLVSQLDLGQLEGVAWVNKSRTRFRIPWKHGLRQDAQQEDFGIFQAWAEATGAYVPGRDKPDLPTWKRNFRSALNRKEGLRLAEDRSKDPHDPHKIYEFVNSGVGDFSQPDTSPDTNGGGSTSDTQEDILDELLGNMVLAPLPDPGPPSLAVAPEPCPQPLRSPSLDNPTPFPNLGPSENPLKRLLVPGEEWEFEVTAFYRGRQVFQQTISCPEGLRLVGSEVGDRTLPGWPVTLPDPGMSLTDRGVMSYVRHVLSCLGGGLALWRAGQWLWAQRLGHCHTYWAVSEELLPNSGHGPDGEVPKDKEGGVFDLGPFIVDLITFTEGSGRSPRYALWFCVGESWPQDQPWTKRLVMVKVVPTCLRALVEMARVGGASSLENTVDLHISNSHPLSLTSDQYKAYLQDLVEGMDFQGPGES

Variants of B1 are the subject of this test. Briefly: co-immunoprecipitation (anti-Myc IP, anti-Flag Western blot). The following applies: with Myc-tagged IRF3 (IRF3-Myc); HEK293T cells; parent: 1. (A western blot detects proteins with antibodies after separation by electrophoresis.)
For the variant chain 1 K442R, the ratio to parent is 0.2.
For chain 1 K317R K329R K370R K401R K406R K412R K442R, the ratio to parent turned out to be 0.1.
Regarding chain 1 K89R K93R K104R K156R K179R K195R, the ratio to parent was found to be 0.7.
On to chain 1 K406R, for which the ratio to parent amounted to 0.5.

Source of the values: article PMC10112802.
